Experimental data reported in paper PMC12368639.

Biological target: Cluster of Differentiation 147 (CD147) (human)
Assay: single-molecule force spectroscopy (AFM)

Sequence of Cluster of Differentiation 147 (CD147) (human) (P35613 other isoform, or with tags, fused parts or gaps): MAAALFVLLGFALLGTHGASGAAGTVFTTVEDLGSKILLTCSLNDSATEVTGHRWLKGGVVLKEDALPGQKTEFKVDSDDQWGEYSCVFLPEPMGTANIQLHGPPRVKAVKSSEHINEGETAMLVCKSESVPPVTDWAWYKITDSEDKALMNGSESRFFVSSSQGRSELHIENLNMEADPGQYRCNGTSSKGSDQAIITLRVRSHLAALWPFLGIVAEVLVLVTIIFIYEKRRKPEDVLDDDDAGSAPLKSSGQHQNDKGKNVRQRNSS

Question: “Full length Spike Protein (SARS-CoV-2) (from UniProt P0DTC2) (natural protein)” was tested. Which mean adhesion force did it give?
Answer: The mean adhesion force was 41.9 pN.

Question: What about the mean adhesion force (tip contact time 0 s) of the same substance?
Answer: The mean adhesion force (tip contact time 0 s) was 38.8 pN.

Question: And the mean adhesion force at 37 °C?
Answer: Its mean adhesion force at 37 °C is 46.2 pN.
